# Assay results taken from the RNAGym collection of RNA variant scans (doi:10.7554/elife.90254).
# B1: LINE1-mini (parent)
# chain: GGCAGAGCUCAACACAGCGUGGCAAAGUGGCUGUGGCUAGACUGCC
# Variants of: B1
# Assay: self-cleavage, relative activity (ratio to wild type); higher = more cleavage; in vitro, sequencing; the parent is a self-cleaving ribozyme
row,Variant,self-cleavage
1,A26C U43C,0.25
2,A26C U43A,0.07
3,A25U G27C,0.52
4,C3U G5A,0.21
5,G2A G7U,0.17
6,G2A G7A,0.86
7,G1A A24U,1.15
8,A39U,0.8
9,G2A U38C,0.7
10,G5C C13U,0.05
11,U38A C45G,0.26
12,G2U C13U,0.06
13,G33A C46A,0.1
14,G7U A16C,0.09
15,G27C G40A,0.12
16,G29A G36U,0.09
17,G22U U43G,0.03
18,C10A A26G,0.12
19,C15A G33A,0.11
20,C13A A25C,0.06
21,A41G G44U,0.06
22,A14C C42G,0.07
23,C37U C45G,0.08
24,C13A G22C,0.05

row,Variant,self-cleavage
1,A11G C31A,0.02
2,G2A A26U,1.83
3,A4C G27U,0.07
4,C15A C45G,0.05
5,C8U A24U,0.33
6,C8U A24C,0.24
7,A26C C37G,0.02
8,C23U A39U,0.89
9,A14G G30C,0.24
10,U9G C10G,0.02
11,C23U U43C,0.43
12,U9C G44A,0.04
13,A14C G44C,0.13
14,G29U G35A,0.32
15,U28G G33A,0.11
16,C13G U34C,0.1
17,C10U C37A,0.02
18,C31G C42A,0.05
19,G7A A39U,0.25
20,G27A A41U,0.49
21,A39U G40U,0.14
22,U28C U32G,0.3
23,C8G A11U,0.03
24,C8G A11G,0.03

row,Variant,self-cleavage
1,G36A U38C,0.12
2,U32G C42A,0.04
3,C23A U38C,0.52
4,G1C C37A,0.02
5,G5U C46G,0.13
6,C15A A26U,0.08
7,G19U G44C,0.31
8,G22C U28A,0.44
9,A12G G36U,0.03
10,A4U A39C,0.27
11,C10G A16U,0.06
12,A25C A41G,0.28
13,A25C A41U,0.52
14,C15G G33U,0.36
15,G35U C37G,0.05
16,A12U U43G,0.12
17,C3A A39G,0.57
18,A12C C45U,0.03
19,U32G A41C,0.05
20,G19C C42U,0.25
21,A24C G33A,0.06
22,G7C U34G,0.02
23,C3G U28C,0.16
24,G7U C45U,0.12

row,Variant,self-cleavage
1,U20G A25U,1.21
2,A12C U32C,0.05
3,G5C G7A,0.22
4,G19U A26U,0.56
5,G21C G36A,0.1
6,A14G C45A,0.38
7,G33A C45U,0.1
8,G27C A41G,0.25
9,A14G C46A,0.2
10,A16G U20G,0.16
11,C3A A16U,0.13
12,U20A A24G,0.68
13,G5A U20A,0.13
14,C10A U34A,0.05
15,A16U C23A,0.19
16,U38C,0.6
17,C10A G17U,0.05
18,A11G C13U,0.03
19,C37A A39G,0.05
20,G1C A39U,0.06
21,A24U U32C,0.2
22,G21U G29C,0.4
23,G2C U9G,0.07
24,G17C A39C,0.11

row,Variant,self-cleavage
1,G29C G44A,0.15
2,G2C A25U,0.08
3,C18G U34G,0.02
4,A14U G17A,0.13
5,G40C C45U,0.1
6,G17A G35C,0.05
7,G17A G35U,0.05
8,C42A C46G,0.07
9,G2U A41U,0.08
10,C18A U43C,0.05
11,G1A C10G,0.18
12,A11C U32G,0.03
13,A6U C13U,0.11
14,C3A G40U,0.21
15,A26G G36C,0.07
16,A6C C31U,0.22
17,U38C G40C,0.06
18,G5C C8A,0.18
19,C10A C42G,0.16
20,A12C G27U,0.02
21,U32A U34G,0.03
22,C8A C37U,0.17
23,A4G C46U,0.39
24,A41U U43C,0.09

row,Variant,self-cleavage
1,G29U G44A,0.41
2,A12U U34G,0.04
3,G5C C23U,0.05
4,G7A U34C,0.09
5,G2C A26G,0.11
6,A12G G17A,0.02
7,C8G A25G,0.1
8,C8A A14G,0.56
9,U9C C42U,0.04
10,G21C G29A,0.5
11,G22A A26G,1.31
12,A4G G40A,0.13
13,C15U,1.03
14,A11G G19C,0.03
15,C18U A41U,0.92
16,G1A G21U,1.38
17,G7A G29A,0.09
18,C31U C46A,0.15
19,G7C C8G,0.29
20,G2C A24G,0.09
21,A16G A41C,0.11
22,G5C G36U,0.04
23,A26U G40C,0.06
24,G17A U38A,0.21

row,Variant,self-cleavage
1,A12C A26G,0.01
2,G21U U32G,0.26
3,C13U A39C,0.13
4,U20A A25G,0.26
5,U9A A41G,0.05
6,A12U A39G,0.08
7,G21U A39U,0.63
8,C8U A11G,0.03
9,A11C A39U,0.03
10,A6C A11U,0.1
11,A4G G21A,1.05
12,A12C G30U,0.01
13,U9G G29C,0.05
14,G5C G30A,0.02
15,G1A A26G,1.58
16,U9G A11G,0.02
17,A24C G29U,0.87
18,U20A G33U,0.07
19,A4U G36C,0.07
20,A12U U38A,0.09
21,G7U G40U,0.18
22,U28G C31U,0.47
23,G7U A11G,0.03
